The results in this text go back to publication PMC7886851 (Scientific Reports, 2021).

B1: SecYEG with SecY142C labelled with Atto647N (complex)
chain 1: MAKQPGLDFQSAKGGLGELKRRLLFVIGALIVFRIGSFIPIPGIDAAVLAKLLEQQRGTIIEMFNMFSGGALSRASIFALGIMPYISASIIIQLLTVVHPTLAEIKKEGESGRRKISQYTRYGTLVLAIFQSIGIATGLPNCPGMQGLVINPGFAFYFTAVVSLVTGTMFLMWLGEQITERGIGNGISIIIFAGIVAGLPPAIAHTIEQARQGDLHFLVLLLVAVLVFAVTFFVVFVERGQRRIVVNYAKRQQGRRVYAAQSTHLPLKVNMAGVIPAIFASSIILFPATIASWFGGGTGWNWLTTISLYLQPGQPLYVLLYASAIIFFSFFYTALVFNPRETADNLKKSGAFVPGIRPGEQTAKYIDKVMTRLTLVGALYITFISLIPEFMRDAMKVPFYFGGTSLLIVVVVIMDFMAQVQTLMMSSQYESALKKANLKGYGR
chain 2: MSANTEAQGSGRGLEAMKWVVVVALLLVAIVGNYLYRDIMLPLRALAVVILIAAAGGVALLTTKGKATVAFAREARTEVRKVIWPTRQETLHTTLIVAAVTAVMSLILWGLDGILVRLVSFITGLRF
chain 3: MYEALLVVFLIVAIGLVGLIMLQQGKGADMGASFGAGASATLFGSSGSGNFMTRMTALLATLFFIISLVLGNINSNKTNKGSEWENLSAPAKTEQTQPAAPAKPTSDIPN
modifications: Atto647N (maleimide dye) on cysteine 142; labelling efficiency 24%
B2: YidC23C labelled with Atto520 (YidC W23C, single cysteine) (natural protein)
chain: MDSQRNLLVIALLFVSFMIWQACEQDKNPQPQAQQTTQTTTTAAGSAADQGVPASGQGKLISVKTDVLDLTINTRGGDVEQALLPAYPKELNSTQPFQLLETSPQFIYQAQSGLTGRDGPDNPANGPRPLYNVEKDAYVLAEGQNELQVPMTYTDAAGNTFTKTFVLKRGDYAVNVNYNVQNAGEKPLEISSFGQLKQSITLPPHLDTGSSNFALHTFRGAAYSTPDEKYEKYKFDTIADNENLNISSKGGWVAMLQQYFATAWIPHNDGTNNFYTANLGNGIAAIGYKSQPVLVQPGQTGAMNSTLWVGPEIQDKMAAVAPHLDLTVDYGWLWFISQPLFKLLKWIHSFVGNWGFSIIIITFIVRGIMYPLTKAQYTSMAKMRMLQPKIQAMRERLGDDKQRISQEMMALYKAEKVNPLGGSFPLLIQMPIFLALYYMLMGSVELRQAPFALWIHDLSAQDPYYILPILMGVTMFFIQKMSPTTVTDPMQQKIMTFMPVIFTVFFLWFPSGLVLYYIVSNLVTIIQQQLIYRGLEKRGLHSREKKKS
modifications: Atto520 (maleimide dye) on cysteine 23; labelling efficiency 18%

The target in assay [1] is B2. The assay can be described thus: FRET or BRET; ensemble FRET in detergent: 0.55 µM YidC-Atto520 (donor) in 0.03% dodecyl maltoside titrated with increasing SecYEG-Atto647N (acceptor); excitation 516 nm, donor at 538 nm, acceptor at 669 nm; buffer controls for dilution; Kd by Lineweaver-Burk linearisation. As to conditions: both partners purified. For orientation: BRET reads energy transfer from a luciferase to a nearby fluorophore.

The target in assay [2] is B1. Described as above. Conditions: both partners purified.

As to B1, the stoichiometry N – broadly, a count of units in the complex or per binding partner – in assay [1] came to 1.
For B2, the Kd (in general, a measure of binding affinity in units of concentration) in assay [2] came to 27 ± 10 nM.
